According to paper PMC6760140 (2019):
Like-named read-outs stand apart in the source and are kept apart here.

B1: 2586 Fab (Fab, V domains shown)
VH: EVHLVESGGGLVQPGGSLRLSCAASGFTFSDHYMDWVRQAPGKGLEWVGRIRNKANSYTTDYAASVKGRFTILRDDSKNSLYLQMNSLKTEDAAVYYCVRVGGLGERGDYYYYYMDVWGKGTTVTVSS
VL: SYELTQPPSVSFSPGQTARITCSGDALSKQYTYWYQQKPGQAPVLVIYKDSERPSGIPERFSGSSSGTTVTLTISGVQAEDEADYYCQSADSSGPYQVLFGGGTKLTVL
B2: 2544 Fab (Fab, V domains shown)
VH: EVQLVESGGGLVQPGGSLRLSCVASGFTFSNYNMNWVRQAPGKGLEWLSYISSSSGTIYYADSVKGRFTISRDNAKNSMYLQMNSLRAEDTAVYYCVRVEYYYGSSGYYYDFDSWGQGTLVTVSS
VL: DIVMTQSPLSLPVTPGEPASISCRSSQSLLHNGYNYLDWYLQKPGQSPQLLIYLGSNRASGVPDRFSGSGSGTDFTLKISRVEAEDVGVYYCMQTLQPFTFGQGTRLEIK
B3: 2587 Fab (Fab, V domains shown)
VH: QVQLVQSGAEVRKPGASVKVSCKASGYSFTSYILNWVRQATGQGLEWMGWMNPDSNNTEYAQKFQGRVTITRDTSISTVYMELSGLRSEDTAVYYCARHSFKSNTGFDYWGQGTQVTVSS
VL: SYELSQPPSVSVSAGQTASITCSGDKLGGKYGYWYQQRPGQSPILVIYQDSKRPSGIPERFSGSNSGNTATLTISGTQAMDEADYYCQAWDISTNWVFGGGTKLTVL
B4: 2530 Fab (Fab, V domains shown)
VH: QVQLQESGPGLVKPSETLSLTCTVSGDSMSSYYWSWIRQPAGKGLEWIGRISTSGSTNYNPSLKSRVTMSVDTSNNHFSMRLNSVTAADTAVYYCACSGSYSFFDYWGQGTLVTVSS
VL: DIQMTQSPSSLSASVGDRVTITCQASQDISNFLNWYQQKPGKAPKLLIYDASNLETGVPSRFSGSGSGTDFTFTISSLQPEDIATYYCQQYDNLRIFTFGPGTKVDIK

How the values were obtained:
Test in all cases: BLI
[1] = biological target: T1, Recombinant His-tagged Pfs25 (Plasmodium falciparum, UniProt P13829 17-196)
[2] = biological target: T1, Recombinant His-tagged Pfs25; remark: listed apart in the source
[3] = biological target: T1, Recombinant His-tagged Pfs25; remark: listed apart in the source

| Binder | koff [1] | Kd [2] | Kd [3] |
| --- | --- | --- | --- |
| B1 | 0.00037 s⁻¹ | 2.5 nM | – |
| B2 | 0.00075 s⁻¹ | – | – |
| B3 | 0.0007 s⁻¹ | – | 4.6 nM |
| B4 | 0.0062 s⁻¹ | 19.2 nM | – |
